These results are taken from patent publication US7625734B2, “Glutamine:fructose-6-phosphate amidotransferase (GFAT) comprising an internal purification marker and use thereof for the screening of compounds” (Centre National de la Recherche Scientifique (CNRS), priority 2003, dated 2009).

Series [1] addresses T1, GFAT activity (Homo sapiens, UniProt Q06210, INS317HHHHHH).
T1 construct: made in house; host or cells: Sf9 insect cells (recombinant baculovirus)
As to the kind of experiment: Morgan-Elson assay of GFAT1-His6 enzyme activity. Format: biochemical. Particulars: 30 minutes at 37° C.; D-glucosamine standard curve. The protocol: In this case the enzyme activity is monitored by a colorimetric test the principle of which is the following: the D-glucosamine-6P released by the enzyme is N-acetylated by acetic anhydride in alkaline medium (Ghosh et al., Method. Enzymol. (1962) 5:414), then the solution is treated with Ehrlich's reagent (para-dimethyl-amino-benzaldehyde, PDAB) in concentrated acid medium; the pink compound formed absorbs at 585 nm.
The enzymatic reaction takes place over 30 minutes at 37° C. in the presence of: • 0.2 ml of 100 mM fructose-6P • 0.25 ml of 60 mM L-Glutamine • 0.25 ml of 150 mM KPO4 buffer, pH 7 • 0.1 ml of 25 mM EDTA (ethylene diamine tetra-acetate), pH 7 • up to 200 μl of sample (to be completed with H2O if necessary)
The reaction is stopped by immersion for 4 minutes in a water bath at 100° C. then centrifuged. […]
The activity of the GFAT was determined by comparison with a standard curve established using D-glucosamine as standard in a concentration range of 0 to 200 nmoles. The specific activity of the GFAT1-His6 obtained was thus measured at 1.7 U/mg. […]

Series [2] addresses T1, GFAT activity. The series can be described thus: APAD assay (spectrophotometric assay coupled with glutamate dehydrogenase). Format: biochemical. The protocol:
The kinetic parameters of GFAT1-His6 have been characterized vis-à-vis glutamine (Km^Gln=0.2 mM) and fructose-6P (F6P) (Km^F6P=0.006 mM) by a spectrophotometric assay coupled with glutamate dehydrogenase according to the APAD test. This is in accordance with the values cited in the prior art (Km^Gln=0.26 mM and Km^F6P=0.007 mM for Broschat et al., J. Biol. Chem. (2002) 277:14764).
This is an ultraviolet spectrophotometric assay of the GFAT activity. It is based on the continuous determination of the quantity of L-glutamate formed using GFAT and an analogue of NAD (nicotinamide adenine dinucleotide), APAD (3-acetylpyridine adenine dinucleotide), according to the following reaction (catalyzed by glutamate dehydrogenase (GDH)):
The measurement is carried out at 365 nm, at 37° C. Under these conditions an absorbance unit corresponds to 0.11 μmole of APADH formed.
The test comprises: • 100 μl 3 mM APAD (2 mg/ml) • 25 μl 2M KCl • 100 μl of 1 M KPO4 buffer, pH 7.2 • 100 μl of 100 mM Fructose-6P (30.41 mg/ml) • 100 μl of 60 mM purified L-Glutamine (8.77 mg/ml) • H2O qsf 1 ml (taking into account the volumes to be added hereafter) • 50 μl GDH • sample to be assayed: 0.5 μg

In series [3] the test system is GFAT activity. Particulars: value obtained by Broschat et al., J. Biol. Chem. (2002) 277:14764; cited from earlier work.

Read-outs that look alike come from different tables or passages of the source.

T1 sequence (Q06210 with tags, fused parts or gaps isoform Q06210-2 INS299HHHHHH): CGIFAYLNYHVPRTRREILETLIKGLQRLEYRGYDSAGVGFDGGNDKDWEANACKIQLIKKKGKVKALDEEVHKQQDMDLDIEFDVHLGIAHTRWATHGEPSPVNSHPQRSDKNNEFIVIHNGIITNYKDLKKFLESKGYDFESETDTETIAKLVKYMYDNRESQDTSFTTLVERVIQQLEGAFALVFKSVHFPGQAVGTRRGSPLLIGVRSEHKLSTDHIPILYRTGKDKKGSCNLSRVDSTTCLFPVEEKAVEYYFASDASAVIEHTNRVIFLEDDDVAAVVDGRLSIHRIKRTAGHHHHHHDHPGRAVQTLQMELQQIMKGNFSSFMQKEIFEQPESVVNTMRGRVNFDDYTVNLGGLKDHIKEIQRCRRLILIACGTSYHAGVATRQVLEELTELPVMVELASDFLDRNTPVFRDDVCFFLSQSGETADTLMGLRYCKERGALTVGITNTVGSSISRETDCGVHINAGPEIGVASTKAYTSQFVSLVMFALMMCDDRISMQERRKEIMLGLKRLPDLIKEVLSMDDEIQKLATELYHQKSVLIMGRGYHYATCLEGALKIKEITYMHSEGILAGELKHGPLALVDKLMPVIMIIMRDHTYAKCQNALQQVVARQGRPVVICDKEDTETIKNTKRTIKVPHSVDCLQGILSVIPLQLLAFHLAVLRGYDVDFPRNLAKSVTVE

B1: GFAT1-His6: human GFAT1 (SEQ ID NO: 2) in which a hexa-histidine purification tag is inserted between amino acids 299 and 300 (protein, UniProt Q06210 2-699, looked up)
Glutamine--fructose-6-phosphat …: CGIFAYLNYHVPRTRREILETLIKGLQRLEYRGYDSAGVGFDGGNDKDWEANACKIQLIKKKGKVKALDEEVHKQQDMDLDIEFDVHLGIAHTRWATHGEPSPVNSHPQRSDKNNEFIVIHNGIITNYKDLKKFLESKGYDFESETDTETIAKLVKYMYDNRESQDTSFTTLVERVIQQLEGAFALVFKSVHFPGQAVGTRRGSPLLIGVRSEHKLSTDHIPILYRTARTQIGSKFTRWGSQGERGKDKKGSCNLSRVDSTTCLFPVEEKAVEYYFASDASAVIEHTNRVIFLEDDDVAAVVDGRLSIHRIKRTAGDHPGRAVQTLQMELQQIMKGNFSSFMQKEIFEQPESVVNTMRGRVNFDDYTVNLGGLKDHIKEIQRCRRLILIACGTSYHAGVATRQVLEELTELPVMVELASDFLDRNTPVFRDDVCFFLSQSGETADTLMGLRYCKERGALTVGITNTVGSSISRETDCGVHINAGPEIGVASTKAYTSQFVSLVMFALMMCDDRISMQERRKEIMLGLKRLPDLIKEVLSMDDEIQKLATELYHQKSVLIMGRGYHYATCLEGALKIKEITYMHSEGILAGELKHGPLALVDKLMPVIMIIMRDHTYAKCQNALQQVVARQGRPVVICDKEDTETIKNTKRTIKVPHSVDCLQGILSVIPLQLLAFHLAVLRGYDVDFPRNLAKSVTVE
modifications: internal His6 tag
A word on the Km: it is the substrate concentration at which the rate is half of its maximum. Take B1: the specific activity in series [1] was determined as 1.7 U/mg. In addition, the Km in series [2] (vis-à-vis fructose-6P, read-out: Km F6P) is 6 µM; in series [2] (vis-à-vis glutamine, read-out: Km Gln), 200 µM.

B2: recombinant human GFAT1: recombinant human GFAT1 purified by Broschat et al., J. Biol. Chem. (2002) 277:14764 (protein, UniProt Q06210 2-699, looked up)
Glutamine--fructose-6-phosphat …: B1 Glutamine--fructose-6-phosphat …
For B2, the specific activity in series [3] was 0.4 U/mg.
